Reference: article PMC8263776, “Calmodulin-dependent KCNE4 dimerization controls membrane targeting” (Scientific Reports, 2021)

Legend:
[1] = target: the molecule itself; test: cross-linking; HEK-293 lysates (50 mM boric acid, 100 mM K acetate, 2 mM MgCl2, 1 mM EGTA, 1% Triton X-100, pH 8.5) with or without 5 mM DMP for 1 h; 7% SDS-PAGE, immunoblot against CFP
[2] = target: the molecule itself; test: counting of GFP bleaching steps of single spots (TIRF microscopy); loopBAD-GFP proteins biotinylated by BirA on HEK-293 cells, immobilised through neutravidin on biotinylated glass; bleaching steps counted per spot

| Protein | stoichiometry N [1] | stoichiometry N [2] |
| --- | --- | --- |
| Kv1.3-CFP (natural protein, rat, UniProt P15384 1-525, looked up, Kv1.3, rat (rKv1.3), subcloned from pRcCMV into pECFP-C1; pECFP-C1 is surmised to put CFP at the N-terminus of the insert; source: HEK-293, transfected; in lysate (cross-linking) or in fixed cells (FRET)) MTVVPGDHLLEPEAAGGGGGDPPQGGCVSGGGCDRYEPLPPALPAAGEQDCCGERVVINISGLRFETQLKTLCQFPETLLGDPKRRMRYFDPLRNEYFFDRNRPSFDAILYYYQSGGRIRRPVNVPIDIFSEEIRFYQLGEEAMEKFREDEGFLREEERPLPRRDFQRQVWLLFEYPESSGPARGIAIVSVLVILISIVIFCLETLPEFRDEKDYPASPSQDVFEAANNSTSGASSGASSFSDPFFVVETLCIIWFSFELLVRFFACPSKATFSRNIMNLIDIVAIIPYFITLGTELAERQGNGQQAMSLAILRVIRLVRVFRIFKLSRHSKGLQILGQTLKASMRELGLLIFFLFIGVILFSSAVYFAEADDPSSGFNSIPDAFWWAVVTMTTVGYGDMHPVTIGGKIVGSLCAIAGVLTIALPVPVIVSNFNYFYHRETEGEEQAQYMHVGSCQHLSSSAEELRKARSNSTLSKSEYMVIEEGGMNHSAFPQTPFKTGNSTATCTTNNNPNSCVNIKKIFTDV | 4 | – |
| Kv1.3-loopBAD-GFP (natural protein, rat, UniProt P15384 1-525, looked up, biotin on the loopBAD tag (BirA co-expressed), Kv1.3, rat (rKv1.3); GFP-Kv1.3 with a loopBAD tag introduced at an NruI restriction site; source: HEK-293, electroporated with BirA, on the cell surface) MTVVPGDHLLEPEAAGGGGGDPPQGGCVSGGGCDRYEPLPPALPAAGEQDCCGERVVINISGLRFETQLKTLCQFPETLLGDPKRRMRYFDPLRNEYFFDRNRPSFDAILYYYQSGGRIRRPVNVPIDIFSEEIRFYQLGEEAMEKFREDEGFLREEERPLPRRDFQRQVWLLFEYPESSGPARGIAIVSVLVILISIVIFCLETLPEFRDEKDYPASPSQDVFEAANNSTSGASSGASSFSDPFFVVETLCIIWFSFELLVRFFACPSKATFSRNIMNLIDIVAIIPYFITLGTELAERQGNGQQAMSLAILRVIRLVRVFRIFKLSRHSKGLQILGQTLKASMRELGLLIFFLFIGVILFSSAVYFAEADDPSSGFNSIPDAFWWAVVTMTTVGYGDMHPVTIGGKIVGSLCAIAGVLTIALPVPVIVSNFNYFYHRETEGEEQAQYMHVGSCQHLSSSAEELRKARSNSTLSKSEYMVIEEGGMNHSAFPQTPFKTGNSTATCTTNNNPNSCVNIKKIFTDV | – | 4 |
| KCNE4-loopBAD-GFP (natural protein, mouse, UniProt Q9WTW3 1-170, looked up, biotin on the loopBAD tag (BirA co-expressed), KCNE4, mouse (mKCNE4), UniProtKB Q9WTW3; KCNE4-GFP with a loopBAD tag introduced at an NruI restriction site; source: HEK-293, electroporated with BirA, on the cell surface) MLRMEPLNSTYPSAAASSSPLESHVPSNSSGNGNEYFYILVVMSFYGVFLIGIMLGYMKSKRREKKSSLLLLYKDEERLWGEAMKPLPMMSGLRSGQVPMMLNMLQESVAPALSCTLCSMEGDSVSSESSSPDVHLPIQEEGADDELEETSETPLNDSSEGSSENIHQNS | – | 2 |
